# Patent publication US20250320284A1 (AC IMMUNE, published 2025)
# Numbering of substitutions follows the chain as printed.
# T1: mouse ASC (mouse, UniProt Q9EPB4 1-193)
# T1 construct: recombinant mASC in ELISA and SPR; endogenous ASC of J774.A1 cells in Western blot and immunofluorescence; also called mASC
# T1 sequence: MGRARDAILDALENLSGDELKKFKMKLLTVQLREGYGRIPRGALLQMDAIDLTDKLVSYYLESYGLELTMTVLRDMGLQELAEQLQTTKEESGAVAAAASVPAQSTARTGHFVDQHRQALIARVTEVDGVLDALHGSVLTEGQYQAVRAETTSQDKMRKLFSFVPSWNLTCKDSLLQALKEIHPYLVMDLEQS
# T2: CARD domain of human ASC (human, UniProt Q9ULZ3 107-195)
# T2 construct: biotinylated in BLI; also called hCARD; human CARD
# T2 sequence: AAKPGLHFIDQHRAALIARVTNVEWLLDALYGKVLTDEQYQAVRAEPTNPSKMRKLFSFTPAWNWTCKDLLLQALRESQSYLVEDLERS
# B1: ACI-8018-2221B7F1-AB1 (antibody, V domains shown)
# VH: EVQLVESGGGLVKPGGSLKLSCAASGFTFSDSYMYWLRQTPEKRLEWVASISDGGRYTYYSDSVKGRFTISRDNVKNNLYLQMTSLRSEDTAIYYCARGLDYWGQGTTLTVSS
# VL: DIKMTQSPSSMYASLGERVTITCKASQDINSYLSWFQQKPGKSPKTLIYRANRLVDGVPSRFSGSGSGQDYSLTISSLEYEDMGIYYCLQYAESTWTFGGGTKLEIK
# B2: ACI-8016-2602H6F10-AB1 (antibody, V domains shown)
# VH: QVQLQQSGAELARPGASVKLSCKASGFSFTSYGISWVKQRTGQGLEWIGQIYLRSSNTYYNEKFKDKATLTADKSSSTVYMELRSLTSEDSAVYFCARYYGSSSDYWGQGTTLTVSS
# VL: DIQMNQSPSSLSASLGDTITINCHASQNINVWLSWYQQKPGNIPKVLIYQASNLQTGVPTRFSGSGSGTGFTLTISRLQPEDIATYYCQQGQRYPWTFGGGTKLEIK
# B3: ACI-8016-3E6B11-AB1 (antibody, V domains shown)
# VH: EVQLQQSGAELVRPGSSVKMSCKTSGYTFTNYGITWVKQRPGQGLEWIGYIYVGNGYTEYNEKFKDKAALTSDTSSSTAYMQLTSLTSDDSTIYFCARIAQGRCFDYWGQGTTLSVSS
# VL: DIVLTQSPASSAVSLGQRATISCRASQSVSTSSYSYMHWYQQKPGQPPKLLIKYASTLESGVPARFSGSGSGTDFTLNIHPVEEEDTATYYCQHSWELPYMFGGGTKLEIK
# notes: also called 936.3E6B11
# B4: ACI-8016-2614C3B2-AB1 (antibody, V domains shown)
# VH: QVQLQQSDAELVKPGASVKISCKVSGYALTDHSIHWMKQRPEQGLAWIGYMYPGDGSANYNDKFKGKATLTADISSSTAYMQLNSLTSEDSAVYFCTRPYYFGSSYDYFGYWGQGTTLTVSS
# VL: DIQMNQSPSSLSASLGDTITITCHASQNINVWLSWYQQKPGNVPKLLIYKASKLHTGVSSNFSGSGSGTGFTLTISSLQPEDIGTYYCQQGQSYPYTFGGGTKLEIK
# B5: ACI-8016-17H1G2-AB1 (antibody, V domains shown)
# VH: EVQLQQSGAELVRPGSSVKMSCKTSGFTFTSYGISWVIQRPEQGLEWIGYIYIRNGYTEYNEKFKGKATLTSDTSSNTAYMQLSNLASEDSAIYFCVRIHRRFFDYWGQGTTLTVSS
# VL: DIQMTQTTSSLSASLGDRVTISCSASQGISNYLNWFQQKPNGTVRLLIYYTSSLHSGVPSRFSGSGSGTDYSLTISNLEPEDIATYYCQQYDRLPWTFGGGTKLEIK
# notes: also called 936.17H1G2
# B6: ACI-8016-2A1B12-AB1 (antibody, V domains shown)
# VH: EVQLQQSGAELVRPGSSVKMSCETSGYTFTTYGLTWVKQRPGQGLEWIGYIYVGNGYTEYNEKFKDKATLTSDTSSSIVYMQLSSLTSEDSAIYFCARLGLRRHFDYWGQGTTLTVSS
# VL: AIQMTQTTSSLSASLGDRVTISCRASQDISNYLHWYQQKPDGTVKLLIFFTSGLRSGVPSRFSGSGSGTDYSLTISNLEQEDIATYFCQQSILLPWTFGGGTKLEIK
# notes: also called 936.2A1B12
# B7: ACI-8016-207E8B2-AB1 (antibody, V domains shown)
# VH: QVQLQQSGAELAKPGASVKLSCKASGYTFTSYWMHWVKQRPGQGLEWIGYINPSSGYTKCNQKFKDKATLTADKSSSTAYMQLSSLTYEDSAVYYCVFPFDYDGFDYWGQGTTLTVSS
# VL: DVLMTQTPLSLPVSLGDQASISCRSSQSIVHSNGNTYLEWYLQKPGQSPKLLIYKVSNRFSGVPDRFSGSGSGTVFTLKISRVEAEDLGVYYCFQDSHFPFTFGSGTKLEIK
# B8: ACI-8016-19E6D4-AB1 (antibody, V domains shown)
# VH: EVKLVESGGGLVQPGGSLKLSCAASGFTFSDYYMYWVRQNAEKRLEWVAYISSGGDAPFYSDNLKGRFTISRDNAKNTLYLQMSRLQPEDTAMYFCAREGFYYYGLYGMDYWGQGTSVTVSS
# VL: DIVLSQSPATLSVTPGDSVSLSCRASQSIGDNLHWYQQKSHESPRLIIKSASQSISGIPSRFSGSGSGTDFTLSINIVETEDFGMYFCQQSDTWPLTFGPGTKLELK
# notes: also called 936.19E6D4
# B9: ACI-8016-1112B3D7-AB1 (antibody, V domains shown)
# VH: QVQLQQSGAELVRPGTSVKLSCKASGYTFTSYWMHWVKQRPGQGLEWIGGIDPSDSYTKYNQKFKAKATLTADTSSSTAYMQLSSLTSEDSAIFYCAREEASTVVAHWYFDVWGTGTTVTVSS
# VL: DIVLTQSPATLSVTPGDSVSLSCRASQSISNNLHWYQQKSHESPRLLIKYTSQSISGIPSRFSGSGSGTDYTLSINSVETEDFGMYFCQQSNNWPYTFGGGTKLEIK
# B10: ACI-8016-32B6C7-AB1 chimeric Fab (Fab, V domains shown)
# VH: QVQLQQSDAELVKPGASVKISCKISGYTFTDQTIHWMNQRPEQGLEWIGYIYPGDGSAMYNEKFRGKATLTADKSSSTAYMQLNSLTSEDSAVYFCARPLYSYASYYWFAYWGQGTLVTVSA
# VL: B4 VL with Q38R, V43I, A51S, K53N, S59P, N61R, G84A, Y96L
# notes: Fab
# B11: hACI-8016-32B6C7-AB1_H9L3 Fab (Fab, V domains shown)
# VH: EVQLVQSGAEVKKPGESLKISCKISGYSFTDQTIHWVHQMPGKGLEWMGYIYPGDGSAMYNEKFQGQVTISADKSISTAYLQWSSLKASDTAMYYCARPLYSYASYYWFAYWGQGTLVTVSS
# VL: EIVLTQSPATLSLSPGERATLSCHASQNINVWLSWYQQKPGQAPRLLIYKSSNLHTGIPARFSGSGSGTDFTLTISSLEPEDFAVYYCQQGQSYPLTFGQGTKLEIK
# B12: hACI-8016-32B6C7-AB1_H5L4 Fab (Fab, V domains shown)
# VH: QVQLVQSGAEVKKPGSSVKVSCKISGYTFTDQTIHWVRQAPGQGLEWMGYIYPGDGSAMYNEKFQGRVTITADKSTSTAYMELSSLRSEDTAVYYCARPLYSYASYYWFAYWGQGTLVTVSS
# VL: B11 VL with W32Y
# B13: hACI-8016-32B6C7-AB1_H6L3 Fab (Fab, V domains shown)
# VH: B12 VH with I24A
# VL: B11 VL
# B14: hACI-8016-32B6C7-AB1_H4L3 Fab (Fab, V domains shown)
# VH: B12 VH with T28S
# VL: B11 VL
# B15: hACI-8016-32B6C7-AB1_H6L4 Fab (Fab, V domains shown)
# VH: B12 VH with I24A
# VL: B11 VL with W32Y
# B16: hACI-8016-32B6C7-AB1_H13L4 Fab (Fab, V domains shown)
# VH: B11 VH with G56S
# VL: B11 VL with W32Y
# B17: hACI-8016-32B6C7-AB1_H2L3 Fab (Fab, V domains shown)
# VH: B11 VH with S28T
# VL: B11 VL
# B18: hACI-8016-32B6C7-AB1_H7L4 Fab (Fab, V domains shown)
# VH: B12 VH with G56S
# VL: B11 VL with W32Y
# B19: hACI-8016-32B6C7-AB1_H15L3 Fab (Fab, V domains shown)
# VH: B12 VH with I24A, G56A
# VL: B11 VL
# B20: hACI-8016-32B6C7-AB1_H8L4 Fab (Fab, V domains shown)
# VH: B12 VH with G56A
# VL: B11 VL with W32Y
# B21: hACI-8016-32B6C7-AB1_H9L4 Fab (Fab, V domains shown)
# VH: B11 VH
# VL: B11 VL with W32Y
# B22: hACI-8016-32B6C7-AB1_H14L3 Fab (Fab, V domains shown)
# VH: B12 VH with I24A, G56S
# VL: B11 VL
# B23: hACI-8016-32B6C7-AB1_H13L3 Fab (Fab, V domains shown)
# VH: B11 VH with G56S
# VL: B11 VL
# Target: T3, human ASC (apoptosis associated speck-like protein containing a caspase-recruitment domain) (human, UniProt Q9ULZ3 1-195)
# T3 construct: recombinant hASC in ELISA and SPR; endogenous ASC (cytoplasmic or specks) in Western blot and immunofluorescence; also called hASC; PYCARD
# T3 sequence (Q9ULZ3 whole entry, the tested form may be a part): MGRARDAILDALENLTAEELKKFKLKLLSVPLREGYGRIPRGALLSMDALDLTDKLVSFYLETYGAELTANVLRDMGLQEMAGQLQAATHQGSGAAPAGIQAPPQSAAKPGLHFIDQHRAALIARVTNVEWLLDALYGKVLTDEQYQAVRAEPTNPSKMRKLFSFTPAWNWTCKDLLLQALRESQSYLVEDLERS
# Assay: ELISA, coated hASC;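 further: antibody binding to plate-coated recombinant human ASC, read as phosphatase substrate absorbance, EC50 from four-parameter variable-slope fit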
# Procedure: (§1) Proteins and peptides were diluted in PBS. Final concentration of 3 μg/mL for human and mouse ASC proteins and 2 μg/mL for PYD and CARD domain of hASC was used to coat ELISA plates (MaxiSorp, Nunc) overnight (ON) at 4° C., 50 μL/well. After washing four times with PBS/0.05% Tween-20 and blocking for one hour at 37° C. […] After washing, plates were incubated two hours at RT with 1 mg/mL of phosphatase substrate pNPp (Sigma, cat. n° S0942). […] The absorbance signal was read at 405 nm wavelength using a plate reader (Tecan Infinity M200). EC50 was calculated using GraphPad Prism 8 and a non-constrain variable slope 4 parameter fit.
# (§2) The binding potency of a mAb to human ASC (hASC), mouse ASC (mASC), human PYD (hPYD) and human CARD (hCARD) was determined by ELISA.
row,Binder,EC50
1,B1,0.14 nM
2,B2,11.1 nM
3,B3,0.15 nM
4,B4,1.98 nM
5,B5,0.13 nM
6,B6,0.17 nM
7,B7,0.1 nM
8,B8,0.1 nM
9,B9,0.07 nM

# Target: T1, mouse ASC
# Assay: ELISA, coated mASC
# Procedure: as §1, §2
Binder,binding result,EC50
B1,no binding,
B2,,4.52 nM
B3,,0.15 nM
B4,,2.67 nM
B5,,0.19 nM
B6,,1.56 nM
B7,,0.11 nM
B8,no binding,
B9,no binding,

# Target: T3, human ASC (apoptosis associated …)
# Assay: SPR, hASC immobilized, Fab in flow;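 further: hASC amine-coupled on a CM5 chip (about 500 RU), Fab analytes measured by single-cycle kinetics in PBS-P+ running buffer, glycine pH 1.7 regeneration between Fabs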
# Procedure: The instrument was primed with running buffer (10×PBS-P+ diluted to 1× in Milli-Q water). Flow-cells 1-2 of all 8 Fc,s on a CM5 Series S sensor chip were activated with a fresh solution of EDC/NHS at 10 μL/min for 420 sec (Amine Coupling Kit, 1:1 ratio both reagents). hASC was diluted in 10 mM sodium acetate pH 4.0 to a final concentration of 50 μg/mL and injected for 600 sec on Fc2 of all 8 Fc to a final level of 500 RU. Next, all unreacted activated ester groups were quenched with 1 M ethanolamine for 420 sec. Two successive regenerations of 10 mM glycine-HCl pH 1.7 for 30 sec were conducted to remove any non-covalently bound ASC.
# Single-cycle kinetics were performed with a surface regeneration between each cycle. Prior to analysis, two Startup Cycles were run. […] Each successive Fab was preceded by a regeneration step using 10 mM glycine-HCl pH 1.7 with a contact time of 30 sec at 10 μL/min, followed by a stabilization period of 300 sec.
Binder,Kd,koff,kon
B10,1.01 nM,2.11e-05 s⁻¹,20900 M⁻¹ s⁻¹
B11,0.091 nM,8.87e-06 s⁻¹,99100 M⁻¹ s⁻¹
B12,0.079 nM,6.68e-06 s⁻¹,84500 M⁻¹ s⁻¹
B13,0.086 nM,7.52e-06 s⁻¹,87200 M⁻¹ s⁻¹
B14,0.077 nM,8.16e-06 s⁻¹,108000 M⁻¹ s⁻¹
B15,0.067 nM,5.28e-06 s⁻¹,79200 M⁻¹ s⁻¹
B16,0.084 nM,7.09e-06 s⁻¹,84100 M⁻¹ s⁻¹
B17,0.105 nM,8.64e-06 s⁻¹,82200 M⁻¹ s⁻¹
B18,0.067 nM,5.62e-06 s⁻¹,84300 M⁻¹ s⁻¹
B19,0.052 nM,4.82e-06 s⁻¹,103000 M⁻¹ s⁻¹
B20,0.077 nM,7.03e-06 s⁻¹,94000 M⁻¹ s⁻¹
B21,0.081 nM,7.52e-06 s⁻¹,92000 M⁻¹ s⁻¹
B22,0.049 nM,4.96e-06 s⁻¹,101000 M⁻¹ s⁻¹
B23,0.077 nM,8.01e-06 s⁻¹,105000 M⁻¹ s⁻¹

# Target: T2, CARD domain of human ASC
# Assay: ELISA, coated hCARD
# Procedure: as §1, §2
Binder,binding result,EC50
B2,no binding,
B3,,0.13 nM
B4,,2.21 nM
B5,,0.1 nM
B6,,0.13 nM
B7,no binding,
B8,,0.09 nM

# Target: T4, PYD domain of human ASC (human, UniProt Q9ULZ3 1-91, limits assumed)
# T4 construct: biotinylated in BLI; His/MBP-tagged in the alanine ELISA; also called hPYD; human PYD
# T4 sequence (Q9ULZ3 1-91 limits assumed): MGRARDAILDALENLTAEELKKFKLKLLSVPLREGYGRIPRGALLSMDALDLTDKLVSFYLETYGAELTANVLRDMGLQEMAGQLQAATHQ
# Assay: ELISA, coated hPYD;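 further: monoclonal antibody binding to plate-coated human ASC PYD measured by ELISA, with a phosphatase substrate absorbance read-out and EC50 from a variable slope curve fit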
Binder,EC50,binding result
B2,2.52 nM,
B3,,no binding
B5,,no binding
B6,3.34 nM,
B7,0.12 nM,
B8,,no binding
